Legend:
Bio-P19 member A2E-9 = biological target: T1, Bio-P19 member A2E-9 (chain 2 (heavy): C-terminal BirA substrate peptide, biotinylated there by BirA; tag letters not given, left out); assay: phage ELISA, streptavidin plate, anti-M13-HRP
T1 construct: also called biotinylated control peptide A2E-9/HLA-A*02:01 monomer; not shown: BirA substrate peptide (BSP) tag at the C-terminus of the heavy chain
Protocol: (§1) Individual phage clones from enriched phage display panning pools against PSA146/HLA-A*02:01 complex were incubated in the coated plates. Binding of the phage clones was detected by HRP-conjugated anti-M13 antibodies and developed using HRP substrate. The absorbance was read at 450 nm. […] Then, unique antibody clones were identified through DNA sequencing of ELISA-positive clones. […] T2 cells loaded with different peptides and β2M were first stained with purified scFv phage clones, followed by staining with a mouse anti-M13 mAb, and finally R-PE conjugated horse anti-mouse IgG from Vector Labs. Each step of the staining was performed for between 30-60 minutes on ice and the cells were washed twice between stainings. All 16 clones recognized PSA146-loaded T2 cells specifically. FIG. 3 provides examples of PSA146/HLA-A*02:01 specific phage clone binding to peptide-loaded T2 cells through FACS.

Bio-P19 member A2E-1 = biological target: T2, Bio-P19 member A2E-1 (chain 2: C-terminal BirA substrate peptide (BSP), enzymatically biotinylated; its letters are not printed in the patent and it is left out); assay: phage ELISA, streptavidin plate, anti-M13-HRP
T2 construct: also called biotinylated control peptide A2E-1/HLA-A*02:01 monomer
Protocol: as §1

Bio-P19 member A2E-4 = biological target: T3, Bio-P19 member A2E-4 (chain 2 carries a C-terminal BirA substrate peptide (BSP), enzymatically biotinylated; the BSP letters are not given in the patent and are left out); assay: phage ELISA, streptavidin plate, anti-M13-HRP
T3 construct: also called biotinylated control peptide A2E-4/HLA-A*02:01 monomer
Protocol: as §1

Bio-P19 member A2E-11 = biological target: T4, Bio-P19 member A2E-11 (chain 2: C-terminal BirA substrate peptide (BSP), enzymatically biotinylated; its letters are not printed in the patent and it is left out); assay: phage ELISA, streptavidin plate, anti-M13-HRP
T4 construct: also called biotinylated control peptide A2E-11/HLA-A*02:01 monomer
Protocol: as §1

Bio-P19 member A2E-19 = biological target: T5, Bio-P19 member A2E-19 (chain 2 carries a C-terminal BirA substrate peptide (BSP), enzymatically biotinylated; the BSP letters are not given in the patent and are left out); assay: phage ELISA, streptavidin plate, anti-M13-HRP
T5 construct: also called biotinylated control peptide A2E-19/HLA-A*02:01 monomer
Protocol: as §1

Bio-P19 member A2E-15 = biological target: T6, Bio-P19 member A2E-15 (chain 2: C-terminal BirA substrate peptide (BSP), enzymatically biotinylated; its letters are not printed in the patent and it is left out); assay: phage ELISA, streptavidin plate, anti-M13-HRP
T6 construct: also called biotinylated control peptide A2E-15/HLA-A*02:01 monomer
Protocol: as §1

Bio-P19 member A2E-21 = biological target: T7, Bio-P19 member A2E-21 (chain 2 carries a C-terminal BirA substrate peptide (BSP), enzymatically biotinylated; the BSP letters are not given in the patent and are left out); assay: phage ELISA, streptavidin plate, anti-M13-HRP
T7 construct: also called biotinylated control peptide A2E-21/HLA-A*02:01 monomer
Protocol: as §1

Bio-P19 member A2E-10 = biological target: T8, Bio-P19 member A2E-10 (chain 2: C-terminal BirA substrate peptide (BSP), enzymatically biotinylated; its letters are not printed in the patent and it is left out); assay: phage ELISA, streptavidin plate, anti-M13-HRP
T8 construct: also called biotinylated control peptide A2E-10/HLA-A*02:01 monomer
Protocol: as §1

Bio-P19 member A2E-17 = biological target: T9, Bio-P19 member A2E-17 (chain 2: C-terminal BirA substrate peptide (BSP), enzymatically biotinylated; its letters are not printed in the patent and it is left out); assay: phage ELISA, streptavidin plate, anti-M13-HRP
T9 construct: also called biotinylated control peptide A2E-17/HLA-A*02:01 monomer
Protocol: as §1

Bio-P19 member A2E-14 = biological target: T10, Bio-P19 member A2E-14 (chain 2: C-terminal BirA substrate peptide (BSP), enzymatically biotinylated; its letters are not printed in the patent and it is left out); assay: phage ELISA, streptavidin plate, anti-M13-HRP
T10 construct: also called biotinylated control peptide A2E-14/HLA-A*02:01 monomer
Protocol: as §1

Bio-P19 member A2E-13 = biological target: T11, Bio-P19 member A2E-13 (chain 2: C-terminal BirA substrate peptide (BSP), enzymatically biotinylated; its letters are not printed in the patent and it is left out); assay: phage ELISA, streptavidin plate, anti-M13-HRP
T11 construct: also called biotinylated control peptide A2E-13/HLA-A*02:01 monomer
Protocol: as §1

Bio-P19 member A2E-6 = biological target: T12, Bio-P19 member A2E-6 (chain 2 carries a C-terminal BirA substrate peptide (BSP), enzymatically biotinylated; the BSP letters are not given in the patent and are left out); assay: phage ELISA, streptavidin plate, anti-M13-HRP
T12 construct: also called biotinylated control peptide A2E-6/HLA-A*02:01 monomer
Protocol: as §1

Bio-P19 member A2E-5 = biological target: T13, Bio-P19 member A2E-5 (chain 2 carries a C-terminal BirA substrate peptide (BSP), enzymatically biotinylated; the BSP letters are not given in the patent and are left out); assay: phage ELISA, streptavidin plate, anti-M13-HRP
T13 construct: also called biotinylated control peptide A2E-5/HLA-A*02:01 monomer
Protocol: as §1

Bio-P19 member A2E-16 = biological target: T14, Bio-P19 member A2E-16 (chain 2: C-terminal BirA substrate peptide (BSP), enzymatically biotinylated; its letters are not printed in the patent and it is left out); assay: phage ELISA, streptavidin plate, anti-M13-HRP
T14 construct: also called biotinylated control peptide A2E-16/HLA-A*02:01 monomer
Protocol: as §1

Bio-P19 member A2E-7 = biological target: T15, Bio-P19 member A2E-7 (chain 2 (heavy): C-terminal BirA substrate peptide, biotinylated there by BirA; tag letters not given, left out); assay: phage ELISA, streptavidin plate, anti-M13-HRP
T15 construct: also called biotinylated control peptide A2E-7/HLA-A*02:01 monomer; not shown: BirA substrate peptide (BSP) tag at the C-terminus of the heavy chain
Protocol: as §1

Bio-P19 member A2E-8 = biological target: T16, Bio-P19 member A2E-8 (chain 2 (heavy): C-terminal BirA substrate peptide, biotinylated there by BirA; tag letters not given, left out); assay: phage ELISA, streptavidin plate, anti-M13-HRP
T16 construct: also called biotinylated control peptide A2E-8/HLA-A*02:01 monomer; not shown: BirA substrate peptide (BSP) tag at the C-terminus of the heavy chain
Protocol: as §1

[1] = biological target: T17, PSA 146-154 peptide/HLA-A*02:01 complex on the cell surface (human); assay: flow cytometry, phage on T2 cells, anti-M13 + R-PE anti-mouse IgG
T17 construct: also called PSA146/HLA-A*02:01; PSA146-loaded T2 cells
Protocol: as §1

B1: PSA146/HLA-A*02:01-specific scFv phage clone #18 (scFv, V domains shown)
VH: QVQLVQSGAEVKKPGESLKISCKGSGYSFTSYWIGWVRQMPGKGLEWMGIIYPGDSDTRYSPSFQGQVTISADKSISTAYLQWSSLKASDTAMYYCARWGSRGFLDAFDIWGQGTMVTVSS
VL: QSVVTQPPSVSAAPGQRVTISCSGSSSNIGNNYVSWYQQLPGAAPRLLIYDNDKRPSGIPDRFSGSKSGTSATLGITGLQTGDEADYYCGTWDSSLSSGVFGGGTKLTVLG
B1: no binding (Bio-P19 member A2E-9); no binding (Bio-P19 member A2E-1); no binding (Bio-P19 member A2E-4). B1: no binding (Bio-P19 member A2E-11); no binding (Bio-P19 member A2E-19); no binding (Bio-P19 member A2E-15). B1: no binding (Bio-P19 member A2E-21); no binding (Bio-P19 member A2E-10); no binding (Bio-P19 member A2E-17). B1: no binding (Bio-P19 member A2E-14); no binding (Bio-P19 member A2E-13); no binding (Bio-P19 member A2E-6). B1: no binding (Bio-P19 member A2E-5); no binding (Bio-P19 member A2E-16); no binding (Bio-P19 member A2E-7). B1: no binding (Bio-P19 member A2E-8); binds [1].

Source: patent publication US20200087400A1 (EUREKA THERAPEUTICS, published 2020)
